In article PMC4866589:

Substrate: Nc1ncnc2c1ncn2[C@@H]1O[C@H](COP(=O)(O)OP(=O)(O)OP(=O)(O)O)[C@@H](O)[C@H]1O
Test: ATP Km by microfluidic mobility shift kinase assay
Type: biochemical, Homo sapiens
Settings: Mg2+ ([…] MgCl2 in the assay buffer)

B1: hTSSK2 (testis-specific serine/threonine kinase 2) (Homo sapiens) (protein)
chain: MDDATVLRKKGYIVGINLGKGSYAKVKSAYSERLKFNVAVKIIDRKKTPTDFVERFLPREMDILATVNHGSIIKTYEIFETSDGRIYIIMELGVQGDLLEFIKCQGALHEDVARKMFRQLSSAVKYCHDLDIVHRDLKCENLLLDKDFNIKLSDFGFSKRCLRDSNGRIILSKTFCGSAAYAAPEVLQSIPYQPKVYDIWSLGVILYIMVCGSMPYDDSDIRKMLRIQKEHRVDFPRSKNLTCECKDLIYRMLQPDVSQRLHIDEILSHSWLQPPKPKATSSASFKREGEGKYRAECKLDTKTGLRPDHRPDHKLGAKTQHRLLVVPENENRMEDRLAETSRAKDHHISGAEVGKAST
- Km: 2.17 ± 0.04 µM
